Assay [1] addresses T1, mutant Ang2 protein, N421 substituted with alanine, FLAG-tagged at its N-terminal (human, UniProt O15123 19-496, limits assumed).
T1 sequence: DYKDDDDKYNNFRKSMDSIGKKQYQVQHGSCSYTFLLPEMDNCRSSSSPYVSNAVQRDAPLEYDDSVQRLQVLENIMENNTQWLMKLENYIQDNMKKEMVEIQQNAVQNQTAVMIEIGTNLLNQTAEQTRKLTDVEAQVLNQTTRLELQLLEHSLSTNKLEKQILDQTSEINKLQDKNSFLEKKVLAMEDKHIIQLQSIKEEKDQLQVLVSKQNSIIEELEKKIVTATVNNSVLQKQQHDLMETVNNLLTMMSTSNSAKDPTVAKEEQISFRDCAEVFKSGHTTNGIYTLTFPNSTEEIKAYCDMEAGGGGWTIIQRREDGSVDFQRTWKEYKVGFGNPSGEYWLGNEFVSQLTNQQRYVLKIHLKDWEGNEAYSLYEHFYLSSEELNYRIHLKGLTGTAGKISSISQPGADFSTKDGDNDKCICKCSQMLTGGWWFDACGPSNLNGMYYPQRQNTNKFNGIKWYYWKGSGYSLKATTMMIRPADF
The experiment in a line: ELISA, coated antibody 1000 nM, 250 ng FLAG-tagged mutant Ang2, anti-FLAG-HRP, OD450. The method, boiled down:
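Antibody coated at 1000 nM and BSA-blocked; 250 ng N-terminally FLAG-tagged alanine-mutant Ang2 bound 2 h at room temperature, detected with HRP-anti-FLAG (1 h) and TMB, OD450. Binding expressed as % of that to native Ang2.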

Assay [2] deals with T2, BSA (bovine, UniProt P02769).
T2 construct: also called Bovine serum albumin; BSA (Sigma)
As to the kind of experiment: ELISA: coated BSA, 10D6 2 µg/ml with or without FLAG-Ang2, detected with anti-mouse IgG-HRP (OD450). The protocol: (§1) A 96-well MaxiSorp™ flat-bottom plate (Nunc) was coated with 4 ug/ml of Tie2-Fc (R&D systems) or BSA (Sigma). Then, the plate was washed five times with 0.05% (v/v) Tween-20-containing PBS (Phosphate Buffer Saline) and blocked with 1% (v/v) BSA (Bovine serum albumin; Sigma)-containing PBS at a room temperature for 2 hours. 0.25 ug/ml of Ang2 and 2 ug/ml of antibody 10D6 were added to each well of the plate, which was allowed to react at a room temperature for 2 hours and then washed five times with PBST. After that, an anti-mouse IgG antibody (Sigma) conjugated with HRP diluted in 1% (v/v) BSA-containing PBS at a ratio of 1:5,000 (v/v) was added in an amount of 100 ul to each well to react at a room temperature for 1 hour and then, the plate was washed five times with PBST. Lastly, 100 ul (microliter) of TMB substrate (Cell Signaling) was added to each well of the plate to induce color development for 3 min. and then, the reaction was ceased by the addition of 100 ul of Stop solution (Cell Signaling) and OD450 values were measured on a plate reader (Molecular Devices).

Assay [3] concerns the target T3, hTie2-Fc (R&D Systems) (human, UniProt Q02763 23-745).
T3 construct: also called hTie-2/Fc fusion protein; not shown: Fc of human IgG1
As to the kind of experiment: ELISA: coated Tie2-Fc, 10D6 2 µg/ml without Ang2, detected with anti-mouse IgG-HRP (OD450). The protocol:
as §1, with “0.25 ug/ml of Ang2 and 2 ug/ml of antibody 10D6 were added to each well of the plate, which was allowed to react at a room temperature for 2 hours and then washed five times with PBST.” left out

T2 sequence (P02769 25-607 limits assumed): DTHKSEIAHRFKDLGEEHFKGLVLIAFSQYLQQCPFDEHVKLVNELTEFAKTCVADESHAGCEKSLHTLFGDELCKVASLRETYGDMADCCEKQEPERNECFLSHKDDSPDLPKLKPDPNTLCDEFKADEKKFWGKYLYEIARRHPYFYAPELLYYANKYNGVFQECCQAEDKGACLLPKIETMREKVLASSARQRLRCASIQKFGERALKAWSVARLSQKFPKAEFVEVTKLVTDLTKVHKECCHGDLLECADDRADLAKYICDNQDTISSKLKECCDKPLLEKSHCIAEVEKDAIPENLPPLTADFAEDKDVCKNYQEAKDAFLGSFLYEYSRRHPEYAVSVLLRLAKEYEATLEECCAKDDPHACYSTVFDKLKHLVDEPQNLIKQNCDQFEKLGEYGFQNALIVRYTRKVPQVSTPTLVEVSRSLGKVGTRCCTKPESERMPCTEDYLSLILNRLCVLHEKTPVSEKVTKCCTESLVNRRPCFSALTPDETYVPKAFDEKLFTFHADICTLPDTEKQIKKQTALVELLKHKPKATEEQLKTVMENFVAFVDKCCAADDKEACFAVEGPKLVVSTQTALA
T3 sequence (Q02763 23-745 limits assumed): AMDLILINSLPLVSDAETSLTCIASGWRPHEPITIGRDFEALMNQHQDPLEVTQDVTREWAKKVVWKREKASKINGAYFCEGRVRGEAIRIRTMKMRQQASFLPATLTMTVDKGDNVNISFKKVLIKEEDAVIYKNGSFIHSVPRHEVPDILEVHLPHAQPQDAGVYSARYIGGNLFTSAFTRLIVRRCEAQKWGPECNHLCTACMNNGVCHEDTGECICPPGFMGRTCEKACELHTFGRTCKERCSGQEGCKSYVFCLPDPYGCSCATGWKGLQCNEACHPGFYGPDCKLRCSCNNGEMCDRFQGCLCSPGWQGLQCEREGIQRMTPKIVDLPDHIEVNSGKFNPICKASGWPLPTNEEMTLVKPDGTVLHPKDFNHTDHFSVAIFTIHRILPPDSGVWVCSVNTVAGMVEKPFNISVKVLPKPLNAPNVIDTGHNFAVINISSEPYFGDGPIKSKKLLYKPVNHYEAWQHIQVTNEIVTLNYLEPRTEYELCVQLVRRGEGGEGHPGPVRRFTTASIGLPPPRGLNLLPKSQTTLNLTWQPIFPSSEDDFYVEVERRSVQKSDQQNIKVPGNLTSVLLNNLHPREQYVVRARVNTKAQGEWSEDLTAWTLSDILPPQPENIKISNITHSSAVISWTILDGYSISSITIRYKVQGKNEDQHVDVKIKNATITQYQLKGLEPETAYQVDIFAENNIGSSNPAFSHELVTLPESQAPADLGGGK

B1: SAIT-ANG2-AB-m10D6 (antibody, V domains shown)
VH: DVQLQESGPGLVKPSQSLSLTCTVTGYSITSDYAWNWIRQFPGNKLEWMGYINYSGNTDYNPSLKSRSSITRDTSKNQFFLQLNSVTTGDTATYYCARGNFEGAMDYWGQGTSVTVSS
VL: SIVMTQTPKFLLVSAGDRVTITCKASQSVSNDVAWYQQKPGQSPKLLIYYASNRYPGVPDRFTGSGYGTDFTFTISTVQAEDLAVYFCQQDYSSPWTFGGGTKLEIK
notes: also called antibody 10D6; anti-Ang2 antibody (10D6)
With B1, the “binding affinity (%) with mutant Ang2 against the binding affinity with the native Ang2” value in assay [1] stood at 109%. Further, the binding result in assay [2] and in assay [3] was “no binding (tested: 2 µg/ml)” throughout.

Values taken from patent US20150079112A1 (SAMSUNG ELECTRONICS, published 2015).
